Data as given in the DeepSol protein solubility set.

Test: soluble on expression in E. coli; label from the status in PepcDB or PDB records

| Sequence | soluble on expression in E. coli |
| --- | --- |
| KRKTKEQLAILKSFFLQCQWARREDYQKLEQITGLPRPEIIQWFGDTRYALKHGQLKWFRDNA | soluble |
| MSLEASLLKKNQSIELTIEDLTHDGSGVGKIDGYPFFIPNTLPGEKVTAKIIKLNKNYGFARMENIETVSANRVEPPCAVYSKCGGCSLQHLSYDGQLEFKRNQVEETMKRIGKLNVEVPETLGMENPWRYRNKSQVPVGFVNGKLTAGFYQKRSHAIIDMSTCLIHNEQGDFAVQKTREILAKYGTEPYDEQTGKGDIRHIMTRFAHTTGQLMIVLVTTKERMPFKEEIVRDLVEQLELTSIVQNINPHKTNVIFGDRTKTLWGKDIIEDTIHGIRFAISARSFYQVNPLQTEVLYQQAIDAAELTGEETVIDAYCGIGSISLCLAKKAKHVYGVEIVDQAIQDARANAELNELANTTFETGKAEEVIPSWYKAGIVADVLVVDPPRKGCDEKLLETILAMKPKKVVYVSCNPGTLARDMKILTDGGYVAKKVQPVDMFPMTTHIEAVTVLHLNEGHHHHHH | soluble |
| MMKRNILAVIVPALLVAGTANAAEIYNKDGNKVDLYGKAVGLHYFSKGNGENSYGGNGDMTYARLGFKGETQINSDLTGYGQWEYNFQGNNSEGADAQTGNKTRLAFAGLKYADVGSFDYGRNYGVVYDALGYTDMLPEFGGDTAYSDDFFVGRVGGVATYRNSNFFGLVDGLNFAVQYLGKNERDTARRSNGDGVGGSISYEYEGFGIVGAYGAADRTNLQEAQPLGNGKKAEQWATGLKYDANNIYLAANYGETRNATPITNKFTNTSGFANKTQDVLLVAQYQFDFGLRPSIAYTKSKAKDVEGIGDVDLVNYFEVGATYYFNKNMSTYVDYIINQIDSDNKLGVGSDDTVAVGIVYQF | soluble |
| MGSDKIHHHHHHMSKITFKDIYIDGNKITEDSRKAIYLLPPQPLKYASNTWIYKTMPTMNQWLKDIEVQKKMHLNQSSYHLSFSFPANEKIDEVLLEKIRELGFQIGVLELYVIEAKALKELSRKRDVDIQLVSSNNINDYLHVYDAFARPFGDSYANMVKQHIYSSYNLDDIERLVAYVNHQPVGIVDIIMTDKTIEIDGFGVLEEFQHQGIGSEIQAYVGRMANERPVILVADGKDTAKDMYLRQGYVYQGFKYHILKENI | not soluble |
| SLSEGYLSGLEYWNDIHWSCASYNEQVAGEKEEETNSVATLSYSSVDETQVRSLYVSCKSSGKFISSVHSRESQHSRSQRVTVLQTNPNPVFESPNLAAVEICRDASRETYLVPSSCKSICKNYNDLQIAGGQVMAINSVTTDFPSESSFEYGPLLKSSEIPLPMEDSISTQPSDFPQKPIQRYSSYWRITSIKEKSSLQMQNPISNAVLNEYLEQKVVELYKQYIMDTVFHDSSPTQILASELIMTSVDQISLQVSREKNLETSKARDIVFSRLLQLMSTEITEISTPSLHISQYSNVNP | not soluble |
| MHTIELRNISKVIKNNIVLSNINYKFESGKVYGLKGRNGSGKSMLLRTISGLIRPTSGSVIIDGKELHKEIESPGNIGIVVENAGLYPDFTGFYNLKYLAGIMGQISDDEIINAIKRVGLDLYDKKIVKKYSLGMKQKIVIAQAIMEKPDFLLLDEPTNALDESGVKLLREIVQEEATRGALVIIASHNQEDIELLCDKVIIMADGKISDEYVNSREMNLCSEETQ | not soluble |
| MSLSEFEKYYPKISNLSTKLLDNPELGFKEYQTSKLIEDEIKSISPSIKVEHYLGTGLKVIFDNHKPKTIGIIAEMDDLYQPKHFKANPETGAAHACGHYTQVGIALAMINEIVKAERLKEFGTNLAFIFTPAEEFVDLDWRQEQKAKHKLDYFGGKQEAIKQGLFDHINYCVSVHAIGEEFKQRTVEINCDLAGFNFKYFDFYGEASHAAFAPESGVNAQSIATLFTTALALQRQQIKNPNRIRFNPVVIGENTESINVIPDHVKMGSDLSFFDIKYVQSLMKKFDQAAQGCASALGGKAKITTQVGYLPLHSNREMNALVKDTFLQEDRIPGLIENRGYTMAAGDIGDVGFIMPTIQIGYGGWTGTIHGSDFKLIDPEFVLKIFPEFVFNSTLNISNHLEKIDEYHHTKREYLKALKKMEGEGHHHHHH | not soluble |
| MGSDKIHHHHHHMSETNAQKVQEVIIAGMSKTVANYDYAMSELEALVAANNMHAALRIDQGLEKPNPATFFGKGKVVEIKEVAAANDLHIMVINADLTPSQVRNLEEQTDIQIIDRTGLILEIFGNRARSKEAKLQVKIAQLQYQLPRLRTSISNRLDQQAGAAAGGGGGFTNRGAGETQLELNRRTIQDRISHAKHELKELNKDEVVRRSQRDKAGLPNVALVGYTNAGKSTTMNGLVKLFGKGEDKQVFEKDMLFATLDTSIRQLTFPDNKQLLLSDTVGFVSDLPHNLINAFRSTLAEAANADLLIQVIDYADPHYKEMMATTEKTLKEIGVHDVPMIYAFNKADLTEADYPNQQDDQLIYTARDEASLQALTSMIKAKVFKNYVTTTLLIPFNDGEVVAYLNDHANILKTDYLADGTQLTVELNTVDAQRYEKYVVTPA | not soluble |
| MGSDKIHHHHHHMALLTAETFRLQFNNKRRLRRPYYPRKALLCYQLTPQNGSTPTRGYFENKKKCHAEICFINEIKSMGLDETQCYQVTCYLTWSPCSSCAWELVDFIKAHDHLNLGIFASRLYYHWCKPQQKGLRLLCGSQVPVEVMGFPEFADCWENFVDHEKPLSFNPYKMLEELDKNSRAIKRRLERIKS | not soluble |
| MGSDKIHHHHHHMEQDTSMITWHHSPAHLFVPNAFYIVTASTLCHQPLFNSPQKLHILQSTLFEIMQAYNWRLQAWAVFSNHYHFIAQSPEDSSSLKPLIQRFHSQTARAINVLDGSKGRKVWFQYWDTCLTYEQSYLARLNYVHNNPVKHGASRECRAVSLLFSYMV | not soluble |
| MLSETELRALKKLSTTTSRVVGDSTLALPSNVKLSKGEVEKIAVTKKEMFDELAQCNLPTIELITREHTFNGDVIRFAAWLFLMNGQKLMIANNVAVRMGMQYATNLAGNNVKITYVTSNNVVKLGHIAAGVLANPYSNKGSGLFITYEHNLISNQIETGKVCVLFITSLSTTASSTNSFAYSACSVPIEDWDFNMIKLTAETSCASLTAMTNLVNSLVPGERTRPVGLYVDIPGVTVTTSASSGSLPLTTIPAVTPLIFSAYTKQVEEVGVINTLYALSYLP | soluble |
| MPFGLKSSQSIDDKFMSITQMKNLIHYVKKNDALSHLCIYILIITGSRFKPVQHLRYEDLNFKKSCIHLNDTKNKYSKRNVKVRIKDLEYIQSVINKHPINQNGYIFHNFINFISYSAINDVLVRFCLKYKYDKYTLKSLRHTHCSYLLAKGISIQYISKRLGHADIHTTLKIYSHLIKEFEDSENSLIEKNLNDLFSDLEHHHHHH | soluble |
| MGSDKIHHHHHHMEKSKYKRDWSKYDENVITRYKLMFPFYVFEHWWDLLAEENRNARTKYKAPKEFNEFLAFLHIFLPYRAIEGVLRALEQLKIIPTSLDYSTIWERVRNMNITFPETSDELEVIADATGISTNTGGQYIVAKWGKTRDSKFLKIEIVMDNNEFNVINAEVTSNEVESAVKTVKDLQDKGKKVKKFYGDKAYDANEVYKTGVEVVVPPKKNASTKRHLARRKAVREFRKLGYDRWKEEKGYGVRWRVESLFSAVKRTFGESVRQVLLGK | not soluble |
| REIADNTYIVLGTMTLNDFNEYFETDLESDNVDTIAGFYLTGVGTIPSQEEKEHFEVESNGKHLELINDKVKDGRVTKLKILVSE | soluble |
| MKDHSGISFGKNPTVLAIENYIRENGLTPGDVLPSEAAICEHLSVSRSSVREAMRTLASLDVVEIRHGHGTYVGKMSMAPLVNGMVLRLTLNEKSAIENLQHVVGMRIALDRSNAQELAAYYKGRETPKLDQIVEEMKIQFERGESFEHQDFLFHQLLNDHLSNPLMQEFSMALWEIHTRVVPRLGLRDPEDISNTVQAHAHMVEALRAGDVDKLLETIDEHYQPLLSILEKNRQYVEQTEHAVESQKGTLHL | not soluble |
| MANVAFGFQEAVFTLESMVANIERQAQTIEKLINENKQLRQENQQLKARIAELEARTKKNSTNSHFPPSSDRFGAKSPSRPPSEKRPGGQPGHQGTTLRQSPNPDHRVLHRVTQCKGCGHSLEHIDPLQVDIRQVFDLPVVRMEVTQHEREIKRCPECRLVQQAEFPFYVTNHVQYGPAVTSLILYWNHAQLIPCERVTEMVKALTGHSMSAGTVVNMTRRWQPVAEAAIEEIEAALLTSSTLHVDETSLRVKGTKQWVHVASTSKETRYGIHRSRGKQATDDIGILPRYKGTMVHDAYAVYPMYTQASHALCHAHHLRELREYTELYHHSWSNKMAEALLEMKQAVEKAGGALPEEKVRYWEAVYDELLSNGRQELDERCRQGNYLGVRKAEHFIRRLEKRKQEALLFLRKKEVPFDNNQAERDLRMVKVKQKISGTFRQEDDAEAFCVIRSVVSTLQKHGKPVWESLQRLLSGESLQTILQSS | not soluble |
| AIKDAATKLFDPYEILGISTSASDRDIKSAYRKLSVKFHPDKLAKGLTPDEKSVMEETYVQITKAYESLTDELVRQNYLKYGHPDGPQSTSHG | not soluble |
| MSLEDHAEELASDLGVDKEEVTRDLENLVNYSVPMDEAKQSLRRKYGDGSSGGDSTPSSKAINEVSTEDSNVTVTAVVLTSGRRSIQYNGEQHVIREGELADETGKISYTAWDGFSGDLQPGQTVQLGNAGVREWDGQPELNLGDSTDPEVVDETLDIDYDVGGRAALQDLAPGDRGITVEVQVLECEQKVIDGRDGETTILSGVLGDESGRLPFTDWDPHDEIEEGASVRLDETFVREFRGAPSVNVSEFSAVTALDRTVGVTEDAPRLSVREAVESGGLFDVELAGNVIEVRDGSGLIERCPECGRVIQNGQCRSHGAVEGEDDLRTKAILDDGTDTVTAVLDDELTARVYGGDLDDAREHARDAMDKEVVAERISDRIVGREYVVRGSLSVDEYGANLTASTFAEADDDPATRAQALLQEADTLEHHHHHH | soluble |
| MKLNSPSRIHMGLIDLNGELGRVDGGVGVALDYPNFQIEGKESSEIELDSKIEIDEKDRENLESRIKNAARNVLDIIGEDGISLKINEAILSHSGLGSGTQVSLSTGKITSLVYGQDLNAETLAKITGRGGTSGIGVAAFETGGFIVDGGHTFGEGKDKIDFRPSSASKDVKPSPVLFRHDFDWDIVLTIPKGEQVCGDREVDIFRKFCPVPSEDVQKICRLVLMKMMPAVIEKDFNSFGMAVNELQNLGFKRAEVGLQKESLKQLLSKLQDVSYSGISSFGPTIYSLGDKDTITEISNEIFDKFGIDGEIISTKANNSGYEIIK | not soluble |
| MGSDKIHHHHHHMNQFHLTEDQQDCLQELINIAMGQASDQLARYLDTFVYLKVPSIESVEAKDLMKTLSQQKNTVAVVSQGFFGYEGIRGEALLVYKEENSGRIADLLGYEPDELSQDEQLIDISSILTTTFLNVFAQQINNQLSYNAPKLLPNVQEILSEHLQQMPFTWDLALKVNINYQVTDYSFNCNMILLIPETAITNIKHVLDRILEEF | not soluble |
| GPGSMDAVRAMDYTDIYLRPRKKESVSPQEPLRSAQVDSAAESRVEWMLKGAFSVQQLLDRVEELSARVCMFDEKMVNLTKLVKLAQGIQEEKEADIRFQQQELLSRLKRLEQACARLEDMETFKQFIISKVQETLEDAHQAFLSDLAKIRADGEEQAARTKQRIENTVSDVRRDVEERIASLWGEAEQKDLSRQEAQDTLREKLRLVESSLRDLEMSVGRDYSRVPPLQEKIDGITQSLSSLEQKVDKTAGTVVTLGNEAKQARALLMEEIETTRQWVTRNLQRVKQHVEVISSDVEQLHNGRADLSARISRISCQADMECKKLRSQLSQKALVADALDNLVQKEFYKVEDVALRHQSLRTEVGAVKDV | not soluble |
